Data reported in patent US20100215651A1 (GLENMARK PHARMACEUTICALS S A, published 2010).

T1: human CD19 (human, UniProt P15391 20-556)
T1 construct: CD19 as expressed on Raji, NALM-6 and SU-DHL-6 cells; also called CD19 antigen; B-cell surface antigen B4
T1 sequence: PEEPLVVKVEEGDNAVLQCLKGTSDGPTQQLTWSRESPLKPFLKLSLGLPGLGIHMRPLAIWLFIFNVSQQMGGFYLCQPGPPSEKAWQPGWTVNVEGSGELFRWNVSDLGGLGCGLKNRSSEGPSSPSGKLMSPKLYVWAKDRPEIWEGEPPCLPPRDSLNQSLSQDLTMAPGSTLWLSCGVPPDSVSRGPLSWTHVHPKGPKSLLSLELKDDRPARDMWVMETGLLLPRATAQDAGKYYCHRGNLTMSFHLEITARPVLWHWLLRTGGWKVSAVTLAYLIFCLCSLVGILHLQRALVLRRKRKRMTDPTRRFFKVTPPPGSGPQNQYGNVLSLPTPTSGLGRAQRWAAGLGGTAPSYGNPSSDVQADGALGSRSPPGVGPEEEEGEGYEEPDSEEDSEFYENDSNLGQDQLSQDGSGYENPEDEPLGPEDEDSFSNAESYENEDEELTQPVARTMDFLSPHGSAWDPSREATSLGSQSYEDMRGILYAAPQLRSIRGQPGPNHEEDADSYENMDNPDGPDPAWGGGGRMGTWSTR


How the values were obtained:
human CD19 [1] = target: T1, human CD19; assay: flow cytometry, NALM-6 cells, MPF vs chimeric FMC63
Method: (§1) Binding of the CD19 humanized monoclonal antibodies by flow cytometry to Raji tumor cells (human Burkitt lymphoma, DSMZ ACC319), NALM-6 (human B cell precursor leukemia, DSMZ ACC128) and SU-DHL-6 (human B cell lymphoma, DSMZ ACC572) (all cell lines from DSMZ Braunschweig, Deutschland) was assessed. Cells were incubated with serial dilutions of each humanized monoclonal antibody. An irrelevant human IgG1 was used as a negative control. The cells were washed and detected by a phycoerythrin-labeled (PE) anti-human secondary antibody (eBioscience, CA, USA) and analyzed by flow cytometry. […] From MFI versus antibody concentration curves, Mid-Point Fluorescence (MPF) value for each anti-CD19 humanized antibody was calculated using the software GraphPad Prism 5 (CA, USA).

human CD19 [2] = target: T1, human CD19; assay: flow cytometry, Raji cells, MPF vs chimeric FMC63
Method: as §1

Row | Binder | relative MPF (% of chimeric FMC63) (human CD19 [1]) | relative MPF (% of chimeric FMC63) (human CD19 [2]) | binding result (human CD19 [2])
1 | VH16-F67L/VL43 (antibody, human IgG1, name in Kabat numbering, V domains shown, substitutions in Kabat numbering) VH: QVQLVQSGGGVVQPGRSLRLSCAASGVSLPDYGVSWVRQAPGKGLEWVAVIWGSETTYYNSALKSRLTISRDNSKNTLYLQMNSLRAEDTAVYYCARHYYYGGSYAMDYWGQGTLVTVSS VL: DIVMTQTPSSLSASVGDRVTITCRASQDISKYLNWYQQKPGKAPKLLIYHTSRLHSGVPSRFSGSGSGTDFTLTISSLQPEDFATYYCQQGNTLPYTFGPGTKVDIKR | 2.4% |  | 
2 | VH16 Y32F/R94K/VL43 V3Q/T7S/P44I/N92A (antibody, human IgG1, name in Kabat numbering, V domains shown, Full-length human IgG1/kappa; substitutions in Kabat numbering) VH: QVQLVQSGGGVVQPGRSLRLSCAASGVSLPDFGVSWVRQAPGKGLEWVAVIWGSETTYYNSALKSRFTISRDNSKNTLYLQMNSLRAEDTAVYYCAKHYYYGGSYAMDYWGQGTLVTVSS VL: DIQMTQSPSSLSASVGDRVTITCRASQDISKYLNWYQQKPGKAIKLLIYHTSRLHSGVPSRFSGSGSGTDFTLTISSLQPEDFATYYCQQGATLPYTFGPGTKVDIKR |  | 133% | 
3 | VH16/VL43-P44V (antibody, human IgG1, V domains shown, substitutions in Kabat numbering) VH: QVQLVQSGGGVVQPGRSLRLSCAASGVSLPDYGVSWVRQAPGKGLEWVAVIWGSETTYYNSALKSRFTISRDNSKNTLYLQMNSLRAEDTAVYYCARHYYYGGSYAMDYWGQGTLVTVSS VL: DIVMTQTPSSLSASVGDRVTITCRASQDISKYLNWYQQKPGKAVKLLIYHTSRLHSGVPSRFSGSGSGTDFTLTISSLQPEDFATYYCQQGNTLPYTFGPGTKVDIKR | 6.05% | 9.72% | 
4 | VH16-R71K/VL43-F71Y (antibody, human IgG1, name in Kabat numbering, V domains shown, substitutions in Kabat numbering) VH: QVQLVQSGGGVVQPGRSLRLSCAASGVSLPDYGVSWVRQAPGKGLEWVAVIWGSETTYYNSALKSRFTISKDNSKNTLYLQMNSLRAEDTAVYYCARHYYYGGSYAMDYWGQGTLVTVSS VL: DIVMTQTPSSLSASVGDRVTITCRASQDISKYLNWYQQKPGKAPKLLIYHTSRLHSGVPSRFSGSGSGTDYTLTISSLQPEDFATYYCQQGNTLPYTFGPGTKVDIKR | 2.67% |  | 
5 | VH16 Y32F/R94K/Y97F/VL43 V3Q/T7S/P44I/N92A (antibody, human IgG1, name in Kabat numbering, V domains shown, Full-length human IgG1/kappa; substitutions in Kabat numbering) VH: QVQLVQSGGGVVQPGRSLRLSCAASGVSLPDFGVSWVRQAPGKGLEWVAVIWGSETTYYNSALKSRFTISRDNSKNTLYLQMNSLRAEDTAVYYCAKHYFYGGSYAMDYWGQGTLVTVSS VL: DIQMTQSPSSLSASVGDRVTITCRASQDISKYLNWYQQKPGKAIKLLIYHTSRLHSGVPSRFSGSGSGTDFTLTISSLQPEDFATYYCQQGATLPYTFGPGTKVDIKR |  |  | binds
6 | VH16-G42R/VL43-Y87F (antibody, human IgG1, name in Kabat numbering, V domains shown, substitutions in Kabat numbering) VH: QVQLVQSGGGVVQPGRSLRLSCAASGVSLPDYGVSWVRQAPRKGLEWVAVIWGSETTYYNSALKSRFTISRDNSKNTLYLQMNSLRAEDTAVYYCARHYYYGGSYAMDYWGQGTLVTVSS VL: DIVMTQTPSSLSASVGDRVTITCRASQDISKYLNWYQQKPGKAPKLLIYHTSRLHSGVPSRFSGSGSGTDFTLTISSLQPEDFATYFCQQGNTLPYTFGPGTKVDIKR | 3.65% | 8.43% | 
7 | VH16-F67L/VL43-P44V (antibody, human IgG1, name in Kabat numbering, V domains shown, substitutions in Kabat numbering) VH: QVQLVQSGGGVVQPGRSLRLSCAASGVSLPDYGVSWVRQAPGKGLEWVAVIWGSETTYYNSALKSRLTISRDNSKNTLYLQMNSLRAEDTAVYYCARHYYYGGSYAMDYWGQGTLVTVSS VL: DIVMTQTPSSLSASVGDRVTITCRASQDISKYLNWYQQKPGKAVKLLIYHTSRLHSGVPSRFSGSGSGTDFTLTISSLQPEDFATYYCQQGNTLPYTFGPGTKVDIKR | 2.37% |  | 
8 | VH16-G42R/VL43-F71Y (antibody, human IgG1, name in Kabat numbering, V domains shown, substitutions in Kabat numbering) VH: QVQLVQSGGGVVQPGRSLRLSCAASGVSLPDYGVSWVRQAPRKGLEWVAVIWGSETTYYNSALKSRFTISRDNSKNTLYLQMNSLRAEDTAVYYCARHYYYGGSYAMDYWGQGTLVTVSS VL: DIVMTQTPSSLSASVGDRVTITCRASQDISKYLNWYQQKPGKAPKLLIYHTSRLHSGVPSRFSGSGSGTDYTLTISSLQPEDFATYYCQQGNTLPYTFGPGTKVDIKR | 3.97% |  | 
9 | VH16-G42R/VL43 (antibody, human IgG1, name in Kabat numbering, V domains shown, substitutions in Kabat numbering) VH: QVQLVQSGGGVVQPGRSLRLSCAASGVSLPDYGVSWVRQAPRKGLEWVAVIWGSETTYYNSALKSRFTISRDNSKNTLYLQMNSLRAEDTAVYYCARHYYYGGSYAMDYWGQGTLVTVSS VL: DIVMTQTPSSLSASVGDRVTITCRASQDISKYLNWYQQKPGKAPKLLIYHTSRLHSGVPSRFSGSGSGTDFTLTISSLQPEDFATYYCQQGNTLPYTFGPGTKVDIKR | 3.48% |  | 
10 | VH16 Y32F/R94K/VL43 V3Q/T7S/Y32F/P44I/N92A (antibody, human IgG1, name in Kabat numbering, V domains shown, Full-length human IgG1/kappa; substitutions in Kabat numbering) VH: QVQLVQSGGGVVQPGRSLRLSCAASGVSLPDFGVSWVRQAPGKGLEWVAVIWGSETTYYNSALKSRFTISRDNSKNTLYLQMNSLRAEDTAVYYCAKHYYYGGSYAMDYWGQGTLVTVSS VL: DIQMTQSPSSLSASVGDRVTITCRASQDISKFLNWYQQKPGKAIKLLIYHTSRLHSGVPSRFSGSGSGTDFTLTISSLQPEDFATYYCQQGATLPYTFGPGTKVDIKR |  |  | binds
11 | VH16 R94K VL43 Y32F (antibody, human IgG1, V domains shown, Full-length human IgG1/kappa; substitutions in Kabat numbering) VH: QVQLVQSGGGVVQPGRSLRLSCAASGVSLPDYGVSWVRQAPGKGLEWVAVIWGSETTYYNSALKSRFTISRDNSKNTLYLQMNSLRAEDTAVYYCAKHYYYGGSYAMDYWGQGTLVTVSS VL: DIVMTQTPSSLSASVGDRVTITCRASQDISKFLNWYQQKPGKAPKLLIYHTSRLHSGVPSRFSGSGSGTDFTLTISSLQPEDFATYYCQQGNTLPYTFGPGTKVDIKR |  | 39.5% | 
12 | VH16-R94K/VL43-Y87F (antibody, human IgG1, V domains shown, Full-length human IgG1/kappa; substitutions in Kabat numbering) VH: QVQLVQSGGGVVQPGRSLRLSCAASGVSLPDYGVSWVRQAPGKGLEWVAVIWGSETTYYNSALKSRFTISRDNSKNTLYLQMNSLRAEDTAVYYCAKHYYYGGSYAMDYWGQGTLVTVSS VL: DIVMTQTPSSLSASVGDRVTITCRASQDISKYLNWYQQKPGKAPKLLIYHTSRLHSGVPSRFSGSGSGTDFTLTISSLQPEDFATYFCQQGNTLPYTFGPGTKVDIKR |  | 31.8% | 
13 | VH16 R94K/VL43 V3Q/T7S/Y32F/N92A (antibody, human IgG1, V domains shown, Full-length human IgG1/kappa; substitutions in Kabat numbering) VH: QVQLVQSGGGVVQPGRSLRLSCAASGVSLPDYGVSWVRQAPGKGLEWVAVIWGSETTYYNSALKSRFTISRDNSKNTLYLQMNSLRAEDTAVYYCAKHYYYGGSYAMDYWGQGTLVTVSS VL: DIQMTQSPSSLSASVGDRVTITCRASQDISKFLNWYQQKPGKAPKLLIYHTSRLHSGVPSRFSGSGSGTDFTLTISSLQPEDFATYYCQQGATLPYTFGPGTKVDIKR |  |  | binds
14 | VH16-R94K/VL43-F71Y (antibody, human IgG1, V domains shown, Full-length human IgG1/kappa; substitutions in Kabat numbering) VH: QVQLVQSGGGVVQPGRSLRLSCAASGVSLPDYGVSWVRQAPGKGLEWVAVIWGSETTYYNSALKSRFTISRDNSKNTLYLQMNSLRAEDTAVYYCAKHYYYGGSYAMDYWGQGTLVTVSS VL: DIVMTQTPSSLSASVGDRVTITCRASQDISKYLNWYQQKPGKAPKLLIYHTSRLHSGVPSRFSGSGSGTDYTLTISSLQPEDFATYYCQQGNTLPYTFGPGTKVDIKR | 23.5% | 41.8% | 
15 | VH16/VL43-Y87F (antibody, human IgG1, V domains shown, substitutions in Kabat numbering) VH: QVQLVQSGGGVVQPGRSLRLSCAASGVSLPDYGVSWVRQAPGKGLEWVAVIWGSETTYYNSALKSRFTISRDNSKNTLYLQMNSLRAEDTAVYYCARHYYYGGSYAMDYWGQGTLVTVSS VL: DIVMTQTPSSLSASVGDRVTITCRASQDISKYLNWYQQKPGKAPKLLIYHTSRLHSGVPSRFSGSGSGTDFTLTISSLQPEDFATYFCQQGNTLPYTFGPGTKVDIKR |  | 10% | 
16 | VH16-L78V/VL43-P44V (antibody, human IgG1, name in Kabat numbering, V domains shown, substitutions in Kabat numbering) VH: QVQLVQSGGGVVQPGRSLRLSCAASGVSLPDYGVSWVRQAPGKGLEWVAVIWGSETTYYNSALKSRFTISRDNSKNTVYLQMNSLRAEDTAVYYCARHYYYGGSYAMDYWGQGTLVTVSS VL: DIVMTQTPSSLSASVGDRVTITCRASQDISKYLNWYQQKPGKAVKLLIYHTSRLHSGVPSRFSGSGSGTDFTLTISSLQPEDFATYYCQQGNTLPYTFGPGTKVDIKR | 10.9% | 25.9% | 
17 | VH16 R94K/VL43 V3Q/T7S/N92A (antibody, human IgG1, Full-length human IgG1/kappa; substitutions in Kabat numbering) heavy: not shown VL: DIQMTQSPSSLSASVGDRVTITCRASQDISKYLNWYQQKPGKAPKLLIYHTSRLHSGVPSRFSGSGSGTDFTLTISSLQPEDFATYYCQQGATLPYTFGPGTKVDIKRTVAA |  | 18.2% | 
18 | VH16 R94K/Y97F/VL43 V3Q/T7S/Y32F/P44I/N92A (antibody, human IgG1, name in Kabat numbering, V domains shown, Full-length human IgG1/kappa; substitutions in Kabat numbering) VH: QVQLVQSGGGVVQPGRSLRLSCAASGVSLPDYGVSWVRQAPGKGLEWVAVIWGSETTYYNSALKSRFTISRDNSKNTLYLQMNSLRAEDTAVYYCAKHYFYGGSYAMDYWGQGTLVTVSS VL: DIQMTQSPSSLSASVGDRVTITCRASQDISKFLNWYQQKPGKAIKLLIYHTSRLHSGVPSRFSGSGSGTDFTLTISSLQPEDFATYYCQQGATLPYTFGPGTKVDIKR |  |  | binds
